In US10407473B2, “Methods for treating disorders that involve immunoglobulin A” (UNIVERSITY OF MANITOBA, priority 2011, dated 2019):

B1: FDC-SP SN: supernatant of L cells transfected with FDC-SP expression vector, containing recombinant FDC-SP (protein, UniProt Q8NFU4 18-85, looked up)
Follicular dendritic cell …: FPVSQDQEREKRSISDSDELASGFFVFPYPYPFRPLPPIPFPRFPWFRRNFPIPIPESAPTTPLPSEK
modifications: in L cell culture supernatant
B2: FDC-SP: secreted immuno-modulatory polypeptide expressed by activated follicular dendritic cells (protein, UniProt Q8NFU4 18-85, looked up)
Follicular dendritic cell …: B1 Follicular dendritic cell …

Tests used:
[1] = tested on: mouse B cells stimulated to produce IgA; experiment: IgA production by cultured, stimulated mouse splenic B cells (ELISA of supernatants, flow cytometry); type: cell-based; settings: FIG. 8, C57BL6 spleen B cells cultured 5 days with stimuli and a percentage of supernatant, vs Control SN
From the text: A polypeptide of the present invention having immunoregulatory activity inhibits IgA production by B cells in vitro. Whether a polypeptide has immuno-modulatory activity may be determined by in vitro assays. An example of an in vitro assay is described in Example 1. The assay uses B cells, which in one embodiment may be a primary cell obtained from an animal, such as a mouse or human, or in another embodiment may be a B cell line. When obtained from an animal, B cells may be obtained from lymphoid tissues such as spleen, tonsil, and lymph node. […]
Single cell suspensions were generated from the indicated tissues and were pre-incubated with hybridoma supernatant containing Fc receptor blocking antibody. […] Data were analyzed using FlowJo software (TreeStar).
Serum, saliva and bronchoalveolar lavage fluid were collected from 10-14 week old FDC-SP-deficient mice, FDC-SP transgenic mice and strain, age and sex-matched controls. […] Total antibodies levels were determined by coating with anti-mouse IgM or IgA (Jackson ImmunoResearch Laboratories) and NP-specific antibodies levels were determined by coating plates with NP20-BSA (Biosearch Technologies). […]

[2] = Toxicity observation in FDC-SP transgenic mice; type: in vivo; settings: transgenic mice expressing increased levels of FDC-SP polypeptide
From the text: FDC-SP transgenic CD1 mice (i.e., mice constitutively expressing FDC-SP in lymphoid tissues) were generated as described (Al-Alwan et al., 2007, J. Immunol., 178:7859-7867). All experimental animals were housed at the Central Animal Care Facility (University of Manitoba, Winnipeg, MB) in compliance with the guidelines established by the Canadian Council on Animal Care.

B lymphoma cells = settings: secreted FDC-SP; cited from earlier work
T lymphoma cells = settings: secreted FDC-SP; cited from earlier work

Molecule	IgA production in vitro [1]	toxicity associated with the polypeptide [2]	binding to the surface of B lymphoma cells (B lymphoma cells)	binding to the surface of T lymphoma cells (T lymphoma cells)
B1	suppressed	–	–	–
B2	–	no evidence of toxicity	can bind	not
